Data on 36 variants can be found in the Human Domainome abundance scans (Beltran et al. 2025).

B1: Gamma-crystallin C, residues 4 to 79; numbered along this chain, P07315 (parent)
chain: ITFYEDRAFQGRSYETTTDCPNLQPYFSRCNSIRVESGCWMLYERPNYQGQQYLLRRGEYPDYQQWMGLSDSIRSC

± gives the uncertainty stated by the source.

Variants of B1 are the subject of the data set. Briefly: abundance fitness (aPCA) (normalised: wild type 0, dead -1); higher = more abundant; growth selection in yeast, the domain comes from the species named. The following applies: Homo sapiens.
As to ITFYEDRAFQGFSYETTTDCPNLQPYFSRCNSIRVESGCWMLYERPNYQGQQYLLRRGEYPDYQQWMGLSDSIRSC [R12F], the abundance fitness turned out to be 0.026 ± 0.11.
With ITFYEDRAFQGESYETTTDCPNLQPYFSRCNSIRVESGCWMLYERPNYQGQQYLLRRGEYPDYQQWMGLSDSIRSC [R12E], the abundance fitness was 0.066 ± 0.072.
ITFYEDRAFQGVSYETTTDCPNLQPYFSRCNSIRVESGCWMLYERPNYQGQQYLLRRGEYPDYQQWMGLSDSIRSC [R12V]: the abundance fitness was -0.039 ± 0.056.
The result for ITFYEDRAFQGPSYETTTDCPNLQPYFSRCNSIRVESGCWMLYERPNYQGQQYLLRRGEYPDYQQWMGLSDSIRSC [R12P] reads -0.053 ± 0.076.
To ITFYEDRAFQGCSYETTTDCPNLQPYFSRCNSIRVESGCWMLYERPNYQGQQYLLRRGEYPDYQQWMGLSDSIRSC [R12C] belongs -0.063 ± 0.063.
The result for ITFYEDRAFQGASYETTTDCPNLQPYFSRCNSIRVESGCWMLYERPNYQGQQYLLRRGEYPDYQQWMGLSDSIRSC [R12A] reads -0.058 ± 0.071; that for ITFYEDRAFQGLSYETTTDCPNLQPYFSRCNSIRVESGCWMLYERPNYQGQQYLLRRGEYPDYQQWMGLSDSIRSC [R12L], -0.034 ± 0.053; that for ITFYEDRAFQGISYETTTDCPNLQPYFSRCNSIRVESGCWMLYERPNYQGQQYLLRRGEYPDYQQWMGLSDSIRSC [R12I], 0.017 ± 0.077.
Consider ITFYEDRAFQGMSYETTTDCPNLQPYFSRCNSIRVESGCWMLYERPNYQGQQYLLRRGEYPDYQQWMGLSDSIRSC [R12M], for which the abundance fitness was -0.043 ± 0.079.
To ITFYEDRAFQGTSYETTTDCPNLQPYFSRCNSIRVESGCWMLYERPNYQGQQYLLRRGEYPDYQQWMGLSDSIRSC [R12T] belongs 0.024 ± 0.082.
The result for ITFYEDRAFQGQSYETTTDCPNLQPYFSRCNSIRVESGCWMLYERPNYQGQQYLLRRGEYPDYQQWMGLSDSIRSC [R12Q] reads 0.022 ± 0.083; that for ITFYEDRAFQGYSYETTTDCPNLQPYFSRCNSIRVESGCWMLYERPNYQGQQYLLRRGEYPDYQQWMGLSDSIRSC [R12Y], -0.022 ± 0.15.
To ITFYEDRAFQGKSYETTTDCPNLQPYFSRCNSIRVESGCWMLYERPNYQGQQYLLRRGEYPDYQQWMGLSDSIRSC [R12K] belongs 0.031 ± 0.1.
Regarding ITFYEDRAFQGSSYETTTDCPNLQPYFSRCNSIRVESGCWMLYERPNYQGQQYLLRRGEYPDYQQWMGLSDSIRSC [R12S], the abundance fitness is -0.033 ± 0.048.
To ITFYEDRAFQGRAYETTTDCPNLQPYFSRCNSIRVESGCWMLYERPNYQGQQYLLRRGEYPDYQQWMGLSDSIRSC [S13A] belongs -0.051 ± 0.085; to ITFYEDRAFQGRIYETTTDCPNLQPYFSRCNSIRVESGCWMLYERPNYQGQQYLLRRGEYPDYQQWMGLSDSIRSC [S13I], 0.028 ± 0.15.
The result for ITFYEDRAFQGRGYETTTDCPNLQPYFSRCNSIRVESGCWMLYERPNYQGQQYLLRRGEYPDYQQWMGLSDSIRSC [S13G] reads -0.024 ± 0.066; that for ITFYEDRAFQGRDYETTTDCPNLQPYFSRCNSIRVESGCWMLYERPNYQGQQYLLRRGEYPDYQQWMGLSDSIRSC [S13D], -0.122 ± 0.14.
To ITFYEDRAFQGRCYETTTDCPNLQPYFSRCNSIRVESGCWMLYERPNYQGQQYLLRRGEYPDYQQWMGLSDSIRSC [S13C] belongs -0.058 ± 0.11.
For the variant ITFYEDRAFQGRHYETTTDCPNLQPYFSRCNSIRVESGCWMLYERPNYQGQQYLLRRGEYPDYQQWMGLSDSIRSC [S13H], the abundance fitness was -0.025 ± 0.15.
The result for ITFYEDRAFQGREYETTTDCPNLQPYFSRCNSIRVESGCWMLYERPNYQGQQYLLRRGEYPDYQQWMGLSDSIRSC [S13E] reads -0.104 ± 0.09; that for ITFYEDRAFQGRFYETTTDCPNLQPYFSRCNSIRVESGCWMLYERPNYQGQQYLLRRGEYPDYQQWMGLSDSIRSC [S13F], -0.16 ± 0.18.
In the case of ITFYEDRAFQFRSYETTTDCPNLQPYFSRCNSIRVESGCWMLYERPNYQGQQYLLRRGEYPDYQQWMGLSDSIRSC [G11F], the abundance fitness was -0.919 ± 0.39.
ITFYEDRAFQMRSYETTTDCPNLQPYFSRCNSIRVESGCWMLYERPNYQGQQYLLRRGEYPDYQQWMGLSDSIRSC [G11M]: the abundance fitness was -0.504 ± 0.14.
ITFYEDRAFQERSYETTTDCPNLQPYFSRCNSIRVESGCWMLYERPNYQGQQYLLRRGEYPDYQQWMGLSDSIRSC [G11E]: the abundance fitness is -0.321 ± 0.21.
To ITFYEDRAFQCRSYETTTDCPNLQPYFSRCNSIRVESGCWMLYERPNYQGQQYLLRRGEYPDYQQWMGLSDSIRSC [G11C] belongs -0.299 ± 0.12.
To ITFYEDRAFQDRSYETTTDCPNLQPYFSRCNSIRVESGCWMLYERPNYQGQQYLLRRGEYPDYQQWMGLSDSIRSC [G11D] belongs -0.5 ± 0.18; to ITFYEDRAFQVRSYETTTDCPNLQPYFSRCNSIRVESGCWMLYERPNYQGQQYLLRRGEYPDYQQWMGLSDSIRSC [G11V], -0.393 ± 0.06.
The result for ITFYEDRAFQSRSYETTTDCPNLQPYFSRCNSIRVESGCWMLYERPNYQGQQYLLRRGEYPDYQQWMGLSDSIRSC [G11S] reads -0.142 ± 0.079; that for ITFYEDRAFQNRSYETTTDCPNLQPYFSRCNSIRVESGCWMLYERPNYQGQQYLLRRGEYPDYQQWMGLSDSIRSC [G11N], 0.162 ± 0.49.
For ITFYEDRAFQWRSYETTTDCPNLQPYFSRCNSIRVESGCWMLYERPNYQGQQYLLRRGEYPDYQQWMGLSDSIRSC [G11W], the abundance fitness was -0.955 ± 0.19.
To ITFYEDRAFQLRSYETTTDCPNLQPYFSRCNSIRVESGCWMLYERPNYQGQQYLLRRGEYPDYQQWMGLSDSIRSC [G11L] belongs -0.41 ± 0.072; to ITFYEDRAFQHRSYETTTDCPNLQPYFSRCNSIRVESGCWMLYERPNYQGQQYLLRRGEYPDYQQWMGLSDSIRSC [G11H], -0.49 ± 0.24; to ITFYEDRAFQQRSYETTTDCPNLQPYFSRCNSIRVESGCWMLYERPNYQGQQYLLRRGEYPDYQQWMGLSDSIRSC [G11Q], -0.421 ± 0.15.
The result for ITFYEDRAFQYRSYETTTDCPNLQPYFSRCNSIRVESGCWMLYERPNYQGQQYLLRRGEYPDYQQWMGLSDSIRSC [G11Y] reads -0.591 ± 0.19; that for ITFYEDRAFQRRSYETTTDCPNLQPYFSRCNSIRVESGCWMLYERPNYQGQQYLLRRGEYPDYQQWMGLSDSIRSC [G11R], -0.155 ± 0.047.
